Measured values reported in patent US20200315149.

Tests used:
[1] = target: prekallikrein purified from human plasma, P03952
[2] = target: recombinant human pro-HGF, P14210
[3] = target: T1, full-length coagulation factor XII purified from human plasma, P00748
T1 chain: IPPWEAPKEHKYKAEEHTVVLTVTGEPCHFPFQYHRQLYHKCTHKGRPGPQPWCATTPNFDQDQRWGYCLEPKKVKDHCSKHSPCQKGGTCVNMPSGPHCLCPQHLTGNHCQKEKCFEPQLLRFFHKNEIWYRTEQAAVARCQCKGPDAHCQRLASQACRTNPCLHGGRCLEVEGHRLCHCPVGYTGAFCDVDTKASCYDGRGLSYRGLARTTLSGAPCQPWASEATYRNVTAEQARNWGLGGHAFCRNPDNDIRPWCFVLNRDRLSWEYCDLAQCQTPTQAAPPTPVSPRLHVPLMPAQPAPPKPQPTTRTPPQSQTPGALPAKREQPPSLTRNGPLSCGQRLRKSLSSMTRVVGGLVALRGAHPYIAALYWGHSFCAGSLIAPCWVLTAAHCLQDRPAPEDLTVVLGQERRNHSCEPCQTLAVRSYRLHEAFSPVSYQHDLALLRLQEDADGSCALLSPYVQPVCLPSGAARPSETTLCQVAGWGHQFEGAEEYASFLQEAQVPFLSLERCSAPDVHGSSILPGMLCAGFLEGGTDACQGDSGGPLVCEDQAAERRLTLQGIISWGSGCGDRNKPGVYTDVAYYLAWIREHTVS

Sequence of recombinant human pro-HGF, P14210 (P14210 32-728): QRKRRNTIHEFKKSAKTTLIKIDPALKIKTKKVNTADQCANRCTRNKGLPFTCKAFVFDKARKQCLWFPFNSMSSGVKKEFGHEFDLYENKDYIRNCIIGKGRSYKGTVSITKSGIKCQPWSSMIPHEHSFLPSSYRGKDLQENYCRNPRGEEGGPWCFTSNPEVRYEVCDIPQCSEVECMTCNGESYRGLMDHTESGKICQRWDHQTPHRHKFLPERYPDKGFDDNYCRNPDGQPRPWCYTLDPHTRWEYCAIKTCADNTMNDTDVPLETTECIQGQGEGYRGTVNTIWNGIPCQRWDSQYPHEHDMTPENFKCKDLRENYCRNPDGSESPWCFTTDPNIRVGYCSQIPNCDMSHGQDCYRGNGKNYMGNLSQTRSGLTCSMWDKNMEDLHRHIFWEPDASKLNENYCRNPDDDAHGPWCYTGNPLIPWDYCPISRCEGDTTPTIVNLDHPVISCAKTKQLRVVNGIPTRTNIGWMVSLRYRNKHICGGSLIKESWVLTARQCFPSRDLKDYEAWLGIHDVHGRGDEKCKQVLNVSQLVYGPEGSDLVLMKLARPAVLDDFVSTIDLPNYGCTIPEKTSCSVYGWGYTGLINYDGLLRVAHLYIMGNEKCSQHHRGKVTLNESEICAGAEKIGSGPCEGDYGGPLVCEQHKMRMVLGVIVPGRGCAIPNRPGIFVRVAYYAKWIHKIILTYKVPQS
Sequence of prekallikrein purified from human plasma, P03952 (P03952 20-638): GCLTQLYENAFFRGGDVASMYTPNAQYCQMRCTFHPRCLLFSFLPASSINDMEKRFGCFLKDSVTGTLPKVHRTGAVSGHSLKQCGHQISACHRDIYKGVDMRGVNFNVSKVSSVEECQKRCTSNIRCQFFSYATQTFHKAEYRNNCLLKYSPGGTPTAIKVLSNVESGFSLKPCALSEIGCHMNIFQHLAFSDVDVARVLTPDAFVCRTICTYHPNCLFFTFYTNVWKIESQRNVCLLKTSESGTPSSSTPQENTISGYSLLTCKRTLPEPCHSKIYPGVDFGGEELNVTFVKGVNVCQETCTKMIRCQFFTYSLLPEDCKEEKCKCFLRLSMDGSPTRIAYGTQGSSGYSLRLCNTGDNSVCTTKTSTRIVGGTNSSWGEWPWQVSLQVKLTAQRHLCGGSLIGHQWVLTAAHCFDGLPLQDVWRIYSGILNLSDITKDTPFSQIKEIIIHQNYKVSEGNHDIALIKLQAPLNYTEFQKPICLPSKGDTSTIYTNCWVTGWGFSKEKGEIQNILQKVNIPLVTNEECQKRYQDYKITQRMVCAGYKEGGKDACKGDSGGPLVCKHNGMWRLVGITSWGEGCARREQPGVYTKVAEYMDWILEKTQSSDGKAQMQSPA

B1: kallikrein-activated FXII297-596 (protein)
chain: MPAQPAPPKPQPTTRTPPQSQTPGALPAKREQPPSLTRNGPLSCGQRLRKSLSSMTRVVGGLVALRGAHPYIAALYWGHSFCAGSLIAPCWVLTAAHCLQDRPAPEDLTVVLGQERRNHSCEPCQTLAVRSYRLHEAFSPVSYQHDLALLRLQEDADGSCALLSPYVQPVCLPSGAARPSETTLCQVAGWGHQFEGAEEYASFLQEAQVPFLSLERCSAPDVHGSSILPGMLCAGFLEGGTDACQGDSGGPLVCEDQAAERRLTLQGIISWGSGCGDRNKPGVYTDVAYYLAWIREHTVS
cleavage of prekallikrein (200 nM) by activated FXII297-596 (225 nM), western blot for kallikrein heavy chain [1]: activated FXII297-596 converted prekallikrein to kallikrein as seen through the generation of kallikrein heavy chain
cleavage of pro-HGF (25 ug/mL) by activated FXII297-596 (225 nM), western blot with anti-HGF [2]: kallikrein-activated FXII297-596 cleaved pro-HGF to the active two-chain form

B2: recombinant human FXII297-596 (protein)
chain: B1 chain
cleavage of prekallikrein, western blot [1]: no cleavage of prekallikrein was observed with non-activated FXII297-596

B3: recombinant human hepatocyte growth factor activator (protein)
chain: QPGGNRTESPEPNATATPAIPTILVTSVTSETPATSAPEAEGPQSGGLPPPPRAVPSSSSPQAQALTEDGRPCRFPFRYGGRMLHACTSEGSAHRKWCATTHNYDRDRAWGYCVEATPPPGGPAALDPCASGPCLNGGSCSNTQDPQSYHCSCPRAFTGKDCGTEKCFDETRYEYLEGGDRWARVRQGHVEQCECFGGRTWCEGTRHTACLSSPCLNGGTCHLIVATGTTVCACPPGFAGRLCNIEPDERCFLGNGTGYRGVASTSASGLSCLAWNSDLLYQELHVDSVGAAALLGLGPHAYCRNPDNDERPWCYVVKDSALSWEYCRLEACESLTRVQLSPDLLATLPEPASPGRQACGRRHKKRTFLRPRIIGGSSSLPGSHPWLAAIYIGDSFCAGSLVHTCWVVSAAHCFSHSPPRDSVSVVLGQHFFNRTTDVTQTFGIEKYIPYTLYSVFNPSDHDLVLIRLKKKGDRCATRSQFVQPICLPEPGSTFPAGHKCQIAGWGHLDENVSGYSSSLREALVPLVADHKCSSPEVYGADISPNMLCAGYFDCKSDACQGDSGGPLACEKNGVAYLYGIISWGDGCGRLHKPGVYTRVANYVDWINDRIRPPRRLVAPS
cleavage of pro-HGF, western blot [2]: We confirmed the ability of hepatocyte growth factor activator (HGFA) and βFXIIa to cleave pro-HGF

B4: βFXIIa (protein)
chain: NGPLSCGQRLRKSLSSMTRVVGGLVALRGAHPYIAALYWGHSFCAGSLIAPCWVLTAAHCLQDRPAPEDLTVVLGQERRNHSCEPCQTLAVRSYRLHEAFSPVSYQHDLALLRLQEDADGSCALLSPYVQPVCLPSGAARPSETTLCQVAGWGHQFEGAEEYASFLQEAQVPFLSLERCSAPDVHGSSILPGMLCAGFLEGGTDACQGDSGGPLVCEDQAAERRLTLQGIISWGSGCGDRNKPGVYTDVAYYLAWIREHTVS
cleavage of pro-HGF, western blot [2]: We confirmed the ability of hepatocyte growth factor activator (HGFA) and βFXIIa to cleave pro-HGF

B5: cathepsin K (protein)
chain: APDSVDYRKKGYVTPVKNQGQCGSCWAFSSVGALEGQLKKKTGKLLNLSPQNLVDCVSENDGCGGGYMTNAFQYVQKNRGIDSEDAYPYVGQEESCMYNPTGKAAKCRGYREIPEGNEKALKRAVARVGPVSVAIDASLTSFQFYSKGVYYDESCNSDNLNHAVLAVGYGIQKGNKHWIIKNSWGENWGNKGYILMARNKNNACGIANLASFPKM
cleavage of FXII (1.25 uM) by cathepsin K (100 nM), non-reducing SDS-PAGE with Coomassie staining [3]: incubation of full-length FXII with cathepsin K generated stable FXII fragments with sizes supporting cleavage between L296 and M297

B6: kallikrein-activated FXII (protein)
chain: T1 chain
cleavage of pro-HGF (25 ug/mL) by kallikrein-activated FXII (50 nM), western blot [2]: Pro-HGF was cleaved by kallikrein-activated FXII297-596 and kallikrein-activated FXII (arrows), but not by inactivated kallikrein alone

B7: two-chain tissue plasminogen activator (protein)
chain: SYQVICRDEKTQMIYQQHQSWLRPVLRSNRVEYCWCNSGRAQCHSVPVKSCSEPRCFNGGTCQQALYFSDFVCQCPEGFAGKCCEIDTRATCYEDQGISYRGTWSTAESGAECTNWNSSALAQKPYSGRRPDAIRLGLGNHNYCRNPDRDSKPWCYVFKAGKYSSEFCSTPACSEGNSDCYFGNGSAYRGTHSLTESGASCLPWNSMILIGKVYTAQNPSAQALGLGKHNYCRNPDGDAKPWCHVLKNRRLTWEYCDVPSCSTCGLRQYSQPQFRIKGGLFADIASHPWQAAIFAKHRRSPGERFLCGGILISSCWILSAAHCFQERFPPHHLTVILGRTYRVVPGEEEQKFEVEKYIVHKEFDDDTYDNDIALLQLKSDSSRCAQESSVVRTVCLPPADLQLPDWTECELSGYGKHEALSPFYSERLKEAHVRLYPSSRCTSQHLLNRTVTDNMLCAGDTRSGGPQANLHDACQGDSGGPLVCLNDGRMTLVGIISWGLGCGQKDVPGVYTKVTNYLDWIRDNMRP
cleavage of pro-HGF, western blot [2]: other serine proteases found in the brain such as thrombin and tissue plasminogen activator did not convert pro-HGF to HGF
